# Laboratory results reported in patent US20260139057A1 (University of California, published 2026).
# What was measured:
# [1] = molecular target: T1, integrin αvβ5 ectodomain (immobilized) (Homo sapiens (Human), UniProt P06756 31-992; P18084 24-719); experiment: ELISA on immobilized integrin ectodomains plated at 1 µg/ml, blocked with 1% BSA
# T1 construct: R&D Systems; copies: 1 + 1
# Protocol: (§1) FIG. 20: H4C8 maintains ability to block αvβ8-mediated TGF-β activation similar to HuC6D4F12 while maintaining specificity for αvβ8. A) Shown are inhibition curves for the indicated antibody abilities to block the ability of immobilized human αvβ8 to activate human L-TGF-β presented on the cell surface of TMLC by GARP. The assays were performed exactly as described in (Seed et al, Sci Immunol, 2021 and Campbell, et al, Cell 2019). The estimated ED50 values are shown. The antibodies used were HuC6D4 IgG2a, HuC6D4F12 IgG2a or H3.H12, H4C8 or H4C8m (murine VL Fr4) as human IgG4. B) The specificity of H4C8 was tested against immobilized ectodomains of αvβ1, αvβ3, αvβ5, αvβ6 and αvβ8 (either purchased from R &D systems or produced in ExpiCHO cells. All ectodomains were plated at 1 μg/ml and after washing, wells were blocked with 1% BSA. The indicated antibodies (either human IgG4 isotype or H4C8 IgG4).
# [2] = molecular target: T2, integrin αvβ1 ectodomain (immobilized) (Homo sapiens (Human), UniProt P06756 31-992; P05556 21-728); experiment: as above
# T2 construct: R&D Systems; copies: 1 + 1
# Protocol: as §1
# [3] = molecular target: T3, integrin αvβ3 ectodomain (immobilized) (Homo sapiens (Human), UniProt P06756 31-992; P05106 27-718); experiment: as above
# T3 construct: Bought from R&D Systems or made in ExpiCHO cells; copies: 1 + 1
# Protocol: as §1
# [4] = molecular target: T4, integrin αvβ6 ectodomain (immobilized) (human, UniProt P06756 31-992; P18564 22-709); experiment: as above
# T4 construct: extracellular domain; Bought from R&D Systems or made in ExpiCHO cells; also called immobilized human αvβ6
# Protocol: as §1
# [5] = molecular target: T5, human integrin αvβ8 on transfected cells (CHO cells stably transfected; HEK 293 cells stably expressing αvβ8) (human, UniProt P06756 31-1048; P26012 43-769); experiment: flow cytometry on CHO cells expressing human αvβ8 fixed in 2% buffered formalin for 15 min, antibody titrated, hyperbolic least-squares fit (m3 = KD); curves on D00025 [Cont.]
# T5 construct: whole, on cells; also called CHO αvβ8 cells; αvβ8 expressing CHO cells
# Protocol: (§2) FIG. 17: Characterization of cell surface binding of humanized affinity optimized anti-αvβ8 antibodies. The cell surface binding affinities of H4C8, H4G9, H4C10, H4G8 compared to HuC6D4F12 expressed as IgG4 (S228P to prevent arm exchange, R409K and L445P to reduce aggregation and to promote stability). […] Cell surface affinity was determined using the least-squares fit model based on the hyperbolic equation y=m1+m2*m0/(m3+m0), where y=MFI at different avb8 concentrations; m0=αvβ8 concentration; m1=MFI with no αvβ8; m2=MFI at saturation; and m3=KD.
# (§3) FIG. 18: Binding characteristics of H4C8 of formalin fixed αvβ8 compared to HuC6D4F12 or ADWA11 2.4 (from Pat no. US2020/0079855 A1). CHO αvβ8 expressing cells were fixed in 2% buffered formalin in PBS for 15 min at RT and then stained at the indicated concentrations as described in FIG. 17. The binding affinities to unfixed or formalin fixed cells is shown. Cell surface affinity was determined using the least-squares fit model based on the hyperbolic equation y=m1+m2*m0/(m3+m0), where y=MFI at different αvβ8 concentrations; m0=αvβ8 concentration; m1=MFI with no αvβ8; m2=MFI at saturation; and m3=KD.
# [6] = molecular target: T6, recombinant human integrin αvβ8 ectodomain (human, UniProt P06756 31-992; P26012 43-681); experiment: cell-based or functional assay
# [7] = molecular target: T6, recombinant human integrin αvβ8 …; experiment: KinExA, solution-based affinity; antigen form not stated
# From the text: Samples with serial dilutions are drawn over solid-phase beads coupled with one binding partner to capture the complimentary binding molecule, which is detected by flow of fluorophore-labeled antibody solution binding to a separate epitope on the same molecule being measured. Signals are used to calculate free concentration in solution after equilibrium is reached (i.e. to determine binding affinity KD), or under pre-equilibrium conditions over time (i.e. to determine binding kinetics). Free antigen remaining in solution at equilibrium for varying initial antibody concentrations in constant initial concentration of antigen as determined by the KinExA software, based on optimized least-squares fitting to a reversible binding equation.
# A Kinetic Exclusion Assay (KinExA®, Sapidyne Instruments, Inc., Boise, ID) was used to measure the binding affinity of H4C8 (Seq ID NOs. 34, 35) produced with the CH1-CH3 domain from IgG4 (Seq ID NO: 59). […] Samples with serial dilutions are drawn over solid-phase beads coupled with one binding partner to capture the complimentary binding molecule, which is detected by flow of fluorophore-labeled antibody solution binding to a separate epitope on the same molecule being measured. […]
# [8] = molecular target: T6, recombinant human integrin αvβ8 …; experiment: cell-based or functional assay; remark: listed apart in the source
# [9] = molecular target: T5, human integrin αvβ8 on transfected …; experiment: flow cytometry on unfixed CHO cells expressing human αvβ8, antibody titrated, hyperbolic least-squares fit (m3 = KD); curves on D00025 [Cont.]
# Protocol: as §2, §3
# [10] = molecular target: T5, human integrin αvβ8 on transfected …; experiment: flow cytometry, surface binding to CHO αvβ8 cells
# T6 sequence (P06756 31-992 limits assumed, chain 1 of 2): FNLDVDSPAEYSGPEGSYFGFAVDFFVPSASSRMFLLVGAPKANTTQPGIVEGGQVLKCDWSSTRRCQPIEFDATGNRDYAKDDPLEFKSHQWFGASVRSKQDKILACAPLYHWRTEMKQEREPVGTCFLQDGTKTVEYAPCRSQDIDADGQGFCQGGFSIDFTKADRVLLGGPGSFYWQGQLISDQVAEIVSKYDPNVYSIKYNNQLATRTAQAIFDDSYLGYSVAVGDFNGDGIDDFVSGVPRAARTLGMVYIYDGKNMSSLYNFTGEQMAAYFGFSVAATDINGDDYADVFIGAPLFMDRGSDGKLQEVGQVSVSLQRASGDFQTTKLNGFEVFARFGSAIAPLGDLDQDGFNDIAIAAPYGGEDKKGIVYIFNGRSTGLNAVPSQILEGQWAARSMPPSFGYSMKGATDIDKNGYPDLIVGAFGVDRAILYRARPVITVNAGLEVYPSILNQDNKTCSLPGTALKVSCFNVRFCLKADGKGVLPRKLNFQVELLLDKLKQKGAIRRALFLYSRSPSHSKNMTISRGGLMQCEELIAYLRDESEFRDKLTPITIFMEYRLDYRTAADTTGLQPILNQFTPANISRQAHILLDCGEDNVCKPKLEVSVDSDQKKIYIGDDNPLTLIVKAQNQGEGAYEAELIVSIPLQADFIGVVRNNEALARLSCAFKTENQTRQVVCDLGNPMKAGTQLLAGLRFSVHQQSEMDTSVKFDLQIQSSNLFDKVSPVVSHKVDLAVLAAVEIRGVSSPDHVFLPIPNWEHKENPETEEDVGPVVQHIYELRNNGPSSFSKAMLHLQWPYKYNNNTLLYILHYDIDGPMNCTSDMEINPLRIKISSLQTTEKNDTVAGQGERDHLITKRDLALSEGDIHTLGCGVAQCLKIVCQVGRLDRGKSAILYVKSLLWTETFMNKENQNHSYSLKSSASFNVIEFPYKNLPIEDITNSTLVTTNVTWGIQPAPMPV
# T6 sequence (P26012 43-681 limits assumed, chain 2 of 2): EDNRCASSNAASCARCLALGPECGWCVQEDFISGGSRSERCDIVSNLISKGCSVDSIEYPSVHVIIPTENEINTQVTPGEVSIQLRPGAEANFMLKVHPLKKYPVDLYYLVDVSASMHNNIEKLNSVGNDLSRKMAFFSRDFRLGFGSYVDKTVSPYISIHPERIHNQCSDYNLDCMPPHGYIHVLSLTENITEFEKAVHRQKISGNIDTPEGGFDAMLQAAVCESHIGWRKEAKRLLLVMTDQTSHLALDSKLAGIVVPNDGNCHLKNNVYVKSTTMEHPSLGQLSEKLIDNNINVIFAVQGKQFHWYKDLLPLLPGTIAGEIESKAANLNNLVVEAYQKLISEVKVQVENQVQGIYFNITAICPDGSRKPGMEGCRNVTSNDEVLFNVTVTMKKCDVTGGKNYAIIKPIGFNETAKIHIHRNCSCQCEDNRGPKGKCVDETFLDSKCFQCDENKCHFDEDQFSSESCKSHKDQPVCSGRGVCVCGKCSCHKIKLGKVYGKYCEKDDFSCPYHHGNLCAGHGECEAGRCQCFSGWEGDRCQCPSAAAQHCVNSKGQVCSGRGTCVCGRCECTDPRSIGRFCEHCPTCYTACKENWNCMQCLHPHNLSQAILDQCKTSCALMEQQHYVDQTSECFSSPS
# T5 sequence (P06756 31-1048, chain 1 of 2): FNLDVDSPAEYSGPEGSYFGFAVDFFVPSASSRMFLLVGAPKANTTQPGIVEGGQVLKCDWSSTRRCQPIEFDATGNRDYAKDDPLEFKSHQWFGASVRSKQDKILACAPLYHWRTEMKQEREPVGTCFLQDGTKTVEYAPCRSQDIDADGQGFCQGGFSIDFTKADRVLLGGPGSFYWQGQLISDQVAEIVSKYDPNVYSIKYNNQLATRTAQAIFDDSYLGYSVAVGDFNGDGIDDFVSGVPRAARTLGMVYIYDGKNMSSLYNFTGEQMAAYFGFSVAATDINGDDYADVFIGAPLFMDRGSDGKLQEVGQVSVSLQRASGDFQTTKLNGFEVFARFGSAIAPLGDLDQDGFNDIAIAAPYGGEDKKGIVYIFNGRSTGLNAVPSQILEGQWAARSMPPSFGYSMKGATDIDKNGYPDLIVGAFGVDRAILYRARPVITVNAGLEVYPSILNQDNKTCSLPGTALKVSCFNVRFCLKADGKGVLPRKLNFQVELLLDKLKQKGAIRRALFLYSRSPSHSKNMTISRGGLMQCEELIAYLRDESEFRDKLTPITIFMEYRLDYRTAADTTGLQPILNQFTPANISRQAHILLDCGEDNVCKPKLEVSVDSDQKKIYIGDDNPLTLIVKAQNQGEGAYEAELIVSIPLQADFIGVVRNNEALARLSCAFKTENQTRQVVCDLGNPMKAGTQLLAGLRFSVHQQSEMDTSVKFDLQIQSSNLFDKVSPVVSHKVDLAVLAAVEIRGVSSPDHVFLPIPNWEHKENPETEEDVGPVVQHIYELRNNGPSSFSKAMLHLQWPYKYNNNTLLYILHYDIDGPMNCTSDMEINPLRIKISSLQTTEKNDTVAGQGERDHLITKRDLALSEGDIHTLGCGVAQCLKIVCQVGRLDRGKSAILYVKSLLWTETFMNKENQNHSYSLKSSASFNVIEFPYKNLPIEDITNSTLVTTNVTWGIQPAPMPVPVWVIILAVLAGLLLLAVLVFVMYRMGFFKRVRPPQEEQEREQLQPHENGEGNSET
# T5 sequence (P26012 43-769, chain 2 of 2): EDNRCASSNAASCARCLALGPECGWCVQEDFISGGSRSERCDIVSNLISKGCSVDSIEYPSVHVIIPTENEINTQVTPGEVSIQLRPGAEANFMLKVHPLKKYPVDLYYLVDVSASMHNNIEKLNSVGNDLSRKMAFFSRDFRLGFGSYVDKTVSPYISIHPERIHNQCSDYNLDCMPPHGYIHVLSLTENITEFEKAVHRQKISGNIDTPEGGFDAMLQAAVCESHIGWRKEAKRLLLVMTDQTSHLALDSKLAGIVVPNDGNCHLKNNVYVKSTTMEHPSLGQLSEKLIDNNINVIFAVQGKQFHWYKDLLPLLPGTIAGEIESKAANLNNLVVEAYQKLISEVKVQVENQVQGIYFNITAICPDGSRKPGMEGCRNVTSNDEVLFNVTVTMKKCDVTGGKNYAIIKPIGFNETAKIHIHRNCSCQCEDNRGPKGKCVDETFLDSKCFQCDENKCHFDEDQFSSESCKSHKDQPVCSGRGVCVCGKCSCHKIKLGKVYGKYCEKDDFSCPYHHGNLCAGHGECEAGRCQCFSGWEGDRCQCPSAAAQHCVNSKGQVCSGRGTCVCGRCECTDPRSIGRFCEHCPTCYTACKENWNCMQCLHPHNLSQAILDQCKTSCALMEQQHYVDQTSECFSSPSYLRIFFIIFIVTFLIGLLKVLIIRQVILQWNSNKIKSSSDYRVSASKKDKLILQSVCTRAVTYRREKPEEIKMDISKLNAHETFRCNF
# T1 sequence (P06756 31-992 limits assumed, chain 1 of 2): as the sequence (P06756 31-992 limits assumed, chain 1 of 2) above
# T1 sequence (P18084 24-719 limits assumed, chain 2 of 2): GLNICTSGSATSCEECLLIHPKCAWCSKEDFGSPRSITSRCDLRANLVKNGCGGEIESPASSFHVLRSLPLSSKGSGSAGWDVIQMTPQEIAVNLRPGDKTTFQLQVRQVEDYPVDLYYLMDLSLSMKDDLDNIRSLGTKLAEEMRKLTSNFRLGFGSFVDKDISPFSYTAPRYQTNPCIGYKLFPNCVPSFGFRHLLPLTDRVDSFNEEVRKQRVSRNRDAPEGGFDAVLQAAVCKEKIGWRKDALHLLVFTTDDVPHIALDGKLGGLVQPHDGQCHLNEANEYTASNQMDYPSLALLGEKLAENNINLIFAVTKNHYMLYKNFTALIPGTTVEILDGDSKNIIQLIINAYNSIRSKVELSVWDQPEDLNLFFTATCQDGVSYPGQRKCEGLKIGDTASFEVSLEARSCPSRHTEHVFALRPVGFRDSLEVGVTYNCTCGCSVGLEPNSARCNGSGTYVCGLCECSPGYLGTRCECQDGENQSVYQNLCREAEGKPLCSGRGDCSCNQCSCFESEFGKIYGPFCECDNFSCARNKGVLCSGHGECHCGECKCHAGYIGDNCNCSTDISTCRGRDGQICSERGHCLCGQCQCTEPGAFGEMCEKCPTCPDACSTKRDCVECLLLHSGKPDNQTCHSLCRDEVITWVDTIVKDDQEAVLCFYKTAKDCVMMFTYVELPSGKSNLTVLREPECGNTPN
# T4 sequence (P06756 31-992, chain 1 of 2): as the sequence (P06756 31-992 limits assumed, chain 1 of 2) above
# T4 sequence (P18564 22-709, chain 2 of 2): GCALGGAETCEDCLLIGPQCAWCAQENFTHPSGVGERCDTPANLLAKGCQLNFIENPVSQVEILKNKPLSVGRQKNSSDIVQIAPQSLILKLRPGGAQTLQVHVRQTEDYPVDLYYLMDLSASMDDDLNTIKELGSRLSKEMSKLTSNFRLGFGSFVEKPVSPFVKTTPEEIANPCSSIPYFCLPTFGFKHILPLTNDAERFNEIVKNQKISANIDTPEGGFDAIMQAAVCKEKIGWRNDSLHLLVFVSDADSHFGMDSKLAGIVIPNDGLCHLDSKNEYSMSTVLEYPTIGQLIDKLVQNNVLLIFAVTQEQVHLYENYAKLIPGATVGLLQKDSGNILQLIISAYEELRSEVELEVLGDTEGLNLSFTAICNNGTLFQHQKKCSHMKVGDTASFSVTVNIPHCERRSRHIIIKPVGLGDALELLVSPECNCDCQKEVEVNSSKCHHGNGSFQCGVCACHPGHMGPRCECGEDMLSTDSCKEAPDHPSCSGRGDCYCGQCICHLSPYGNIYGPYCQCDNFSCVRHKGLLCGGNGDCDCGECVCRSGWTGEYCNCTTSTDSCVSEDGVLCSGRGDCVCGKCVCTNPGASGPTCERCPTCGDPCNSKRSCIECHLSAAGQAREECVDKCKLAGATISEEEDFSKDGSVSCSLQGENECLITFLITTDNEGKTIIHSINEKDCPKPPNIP
binding result [1],binding result [2],binding result [3],binding result [4],Kd [5],"ED50 of the inhibition of αvβ8-mediated TGF-β activation (immobilized αvβ8, TMLC GARP/L-TGF-β reporter cells) [6]",Kd [7],EC50 of inhibition of αvβ8-mediated TGF-β activation [8],Kd [9],fold lower affinity than F12 mouse IgG2a [10],Binder
no binding,no binding,no binding,no binding,3.6 nM,0.01 µg/mL,0.00707 nM,100 nM,2.6 nM,–,"H4C8 human IgG4 (antibody, V domains shown, also called H4C8 IgG4) VH: QVQLVQSGAEVKKPGASVKVSCKVSGYTLTRQSMHWVRQAPGKGLEWMGRINTETGEPTYAQKFQGRVTMTQDTSTDTAYMELSSLRSEDTAVYFCAIFYYGRDTWGQGTTVTVSS VL: EIVMTQSPATLSVSPGERVTLSCRSSQSLLHSRSRKNYLAWYQQKPGQAPRLLIYWASTRETGVPARFSGSGSGTEFTLTISSLQSEDFAVYYCKQSYNLLSFGQGTKVEIKR"
–,–,–,–,–,–,–,–,–,70 fold,"Clone H1.1 as human IgG4 (antibody, V domains shown) VH: QVQLVQSGAEVKKPGASVKVSCKVSGYTLTKLSMHWVRQAPGKGLEWMGRINTEDGEPIYAQKFQGRVTMTEDTSTDTAYMELSSLRSEDTAVYYCAIFYYGRDSWGQGTTLTVSS VL: EIVMTQSPATLSVSPGERATLSCRASQSLLHSRTRKNYLAWYQQKPGQAPRLLIYWASTRATGIPARFSGSGSGTEFTLTISSLQSEDFAVYYCKQSYNLLSFGQGTVLEIKR"
